Test results from PMC7062661, “Expression and purification of the 5′-nucleotidase YitU from Bacillus species: its enzymatic properties and possible applications in biotechnology” (Applied Microbiology and Biotechnology, 2020).

Legend:
Test in all cases: purified protein
[1] = substrate: Cc1cc2nc3c(=O)[nH]c(=O)nc-3n(C[C@H](O)[C@H](O)[C@H](O)COP(=O)(O)O)c2cc1C; details: 50 mM imidazole pH 7.0, 5 mM MgCl2, 30 °C
[2] = substrate: NC(=O)c1ncn([C@@H]2O[C@H](COP(=O)(O)O)[C@@H](O)[C@H]2O)c1N; details: 50 mM imidazole pH 7.0, 5 mM MgCl2, 30 °C, Hill plot fit (sigmoidal kinetics)
[3] = substrate: Nc1ccn([C@@H]2O[C@H](COP(=O)(O)O)[C@@H](O)[C@H]2O)c(=O)n1; details: 50 mM imidazole pH 7.0, 5 mM MgCl2, 30 °C
[4] = substrate: Nc1nc2c(ncn2[C@@H]2O[C@H](COP(=O)(O)O)[C@@H](O)[C@H]2O)c(=O)[nH]1; details: 50 mM imidazole pH 7.0, 5 mM MgCl2, 30 °C
[5] = substrate: Nc1nc2c(ncn2[C@H]2C[C@H](O)[C@@H](COP(=O)(O)O)O2)c(=O)[nH]1; details: 50 mM imidazole pH 7.0, 5 mM MgCl2, 30 °C
[6] = substrate: Nc1ncnc2c1ncn2[C@@H]1O[C@H](COP(=O)(O)O)[C@@H](O)[C@H]1O; details: 50 mM imidazole pH 7.0, 5 mM MgCl2, 30 °C
[7] = substrate: Nc1ncnc2c1ncn2[C@H]1C[C@H](O)[C@@H](COP(=O)(O)O)O1; details: 50 mM imidazole pH 7.0, 5 mM MgCl2, 30 °C
[8] = substrate: O=c1[nH]c(=O)c2ncn([C@@H]3O[C@H](COP(=O)(O)O)[C@@H](O)[C@H]3O)c2[nH]1; details: 50 mM imidazole pH 7.0, 5 mM MgCl2, 30 °C

B1: Ht-YitUBs (Bacillus subtilis subsp. subtilis str. 168) (protein)
chain: METKPYLIALDLDGTLLKDDKTISENTLHTIQRLKDDGHYVCISTGRPYRSSSMYYQQMELTTPIVNFNGAFVHHPQDDSWGRYHTSLPLDVVKQLVDISESYNVHNVLAEVIDDVYFHYHDEHLIDAFNMNTTNVTVGDLRENLGEDVTSVLIHAKEEDVPAIRSYLSDVHAEVIDHRRWAAPWHVIEIIKSGMNKAVGLQKISDYYGVPRERIIAFGDEDNDLEMLEFAGCGVAMGNGIDAVKQIANRTTATNEEDGVARFLKEYFSL
Protein B1 has a Km [1] of 0.096 ± 0.015 mM, a Vmax [1] of 43.2 µmol/min/mg and a kcat [1] of 23 s⁻¹. The kcat/Km [1] was 239000 M⁻¹ s⁻¹, the K0.5 [2] was 10.19 ± 1.50 mM and the Vmax [2] was 21.2 µmol/min/mg. For the same protein, the kcat [2] was 11.3 s⁻¹, the kcat/Km [2] was 1110 M⁻¹ s⁻¹ and the Km [3] was 17.45 ± 1.82 mM. The Vmax [3] was 73.7 µmol/min/mg, the kcat [3] was 39.2 s⁻¹ and the kcat/Km [3] was 2250 M⁻¹ s⁻¹. The Km [4] was 7.00 ± 0.29 mM, the Vmax [4] was 40 µmol/min/mg and the kcat [4] was 21.3 s⁻¹. The kcat/Km [4] was 3040 M⁻¹ s⁻¹, the Km [5] was 5.61 ± 0.79 mM and the Vmax [5] was 25.9 µmol/min/mg. The kcat [5] was 13.8 s⁻¹, the kcat/Km [5] was 2460 M⁻¹ s⁻¹ and the Km [6] was 14.32 ± 1.01 mM. The Vmax [6] was 52.9 µmol/min/mg, the kcat [6] was 28.2 s⁻¹ and the kcat/Km [6] was 1970 M⁻¹ s⁻¹. It also gave a Km [7] of 8.24 ± 0.42 mM, a Vmax [7] of 49.4 µmol/min/mg and a kcat [7] of 26.2 s⁻¹. It also gave a kcat/Km [7] of 3190 M⁻¹ s⁻¹, a Km [8] of 21.74 ± 2.93 mM and a Vmax [8] of 70.5 µmol/min/mg. It also gave a kcat [8] of 37.5 s⁻¹ and a kcat/Km [8] of 1720 M⁻¹ s⁻¹.
